Tests used:
SHP2-C SH2 = assay: SH2 binding enrichment of the phosphorylated peptide, bacterial display (enrichment ratio); higher = better substrate or ligand; peptides without Tyr show the background
c-Src SH2 = assay: as above
Grb2 SH2 = Grb2 SH2 (UniProt P62993); assay: as above
Fes = Fes (UniProt P07332); assay: phosphorylation enrichment, bacterial display (enrichment ratio); higher = better substrate or ligand; peptides without Tyr show the background
EPHB1 = EPHB1 (UniProt P54762); assay: as above
EPHB2 = EPHB2 (UniProt P29323); assay: as above
Sequence of EPHB2 (P29323 whole entry, looked up): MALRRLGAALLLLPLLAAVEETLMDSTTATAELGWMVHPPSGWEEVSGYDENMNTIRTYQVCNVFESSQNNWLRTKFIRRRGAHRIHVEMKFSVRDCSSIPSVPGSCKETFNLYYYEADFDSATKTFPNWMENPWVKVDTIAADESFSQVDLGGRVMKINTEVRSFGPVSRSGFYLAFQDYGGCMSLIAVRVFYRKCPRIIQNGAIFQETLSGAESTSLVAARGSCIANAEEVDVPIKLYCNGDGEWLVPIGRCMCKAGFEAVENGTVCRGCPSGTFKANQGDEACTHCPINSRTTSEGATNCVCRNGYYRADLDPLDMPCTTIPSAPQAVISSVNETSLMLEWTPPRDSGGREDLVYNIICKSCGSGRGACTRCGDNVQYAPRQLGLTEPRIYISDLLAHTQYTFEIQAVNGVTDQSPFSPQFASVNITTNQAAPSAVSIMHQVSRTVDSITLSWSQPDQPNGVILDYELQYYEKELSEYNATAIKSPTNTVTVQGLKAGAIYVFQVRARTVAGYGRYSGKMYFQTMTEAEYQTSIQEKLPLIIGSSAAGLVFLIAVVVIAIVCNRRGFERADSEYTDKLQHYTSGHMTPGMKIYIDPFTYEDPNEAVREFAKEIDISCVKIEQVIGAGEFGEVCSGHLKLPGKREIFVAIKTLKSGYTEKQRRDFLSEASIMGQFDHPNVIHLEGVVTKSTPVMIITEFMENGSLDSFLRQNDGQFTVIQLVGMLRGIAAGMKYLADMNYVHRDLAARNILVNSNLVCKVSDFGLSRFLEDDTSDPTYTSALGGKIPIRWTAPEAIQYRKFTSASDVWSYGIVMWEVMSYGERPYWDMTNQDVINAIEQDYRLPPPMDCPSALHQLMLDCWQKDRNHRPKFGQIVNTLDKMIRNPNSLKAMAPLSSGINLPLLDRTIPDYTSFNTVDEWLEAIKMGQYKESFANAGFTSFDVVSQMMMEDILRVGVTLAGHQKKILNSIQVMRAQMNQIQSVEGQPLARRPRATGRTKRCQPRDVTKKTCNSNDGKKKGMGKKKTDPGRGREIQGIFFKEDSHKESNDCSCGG

FGFR3 = FGFR3 (UniProt P22607); assay: as above
Hck = Hck (UniProt P08631); assay: as above
Sequence of Hck (P08631 whole entry, looked up): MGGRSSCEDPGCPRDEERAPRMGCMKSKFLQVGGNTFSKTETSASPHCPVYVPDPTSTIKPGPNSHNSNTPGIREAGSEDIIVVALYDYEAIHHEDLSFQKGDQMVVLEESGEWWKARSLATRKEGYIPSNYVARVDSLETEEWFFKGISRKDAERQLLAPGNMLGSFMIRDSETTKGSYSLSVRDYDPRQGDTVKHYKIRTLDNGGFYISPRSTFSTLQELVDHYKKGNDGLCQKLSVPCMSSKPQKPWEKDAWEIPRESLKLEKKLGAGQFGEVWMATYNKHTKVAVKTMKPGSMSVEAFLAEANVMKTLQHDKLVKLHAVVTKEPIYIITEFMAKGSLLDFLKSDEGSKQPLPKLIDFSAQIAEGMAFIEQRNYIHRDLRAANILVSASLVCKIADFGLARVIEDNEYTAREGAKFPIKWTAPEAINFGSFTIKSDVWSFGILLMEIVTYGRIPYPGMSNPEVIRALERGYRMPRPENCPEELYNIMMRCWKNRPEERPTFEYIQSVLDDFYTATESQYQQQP

Fyn = Fyn (UniProt P06241); assay: as above
Sequence of Fyn (P06241 whole entry, looked up): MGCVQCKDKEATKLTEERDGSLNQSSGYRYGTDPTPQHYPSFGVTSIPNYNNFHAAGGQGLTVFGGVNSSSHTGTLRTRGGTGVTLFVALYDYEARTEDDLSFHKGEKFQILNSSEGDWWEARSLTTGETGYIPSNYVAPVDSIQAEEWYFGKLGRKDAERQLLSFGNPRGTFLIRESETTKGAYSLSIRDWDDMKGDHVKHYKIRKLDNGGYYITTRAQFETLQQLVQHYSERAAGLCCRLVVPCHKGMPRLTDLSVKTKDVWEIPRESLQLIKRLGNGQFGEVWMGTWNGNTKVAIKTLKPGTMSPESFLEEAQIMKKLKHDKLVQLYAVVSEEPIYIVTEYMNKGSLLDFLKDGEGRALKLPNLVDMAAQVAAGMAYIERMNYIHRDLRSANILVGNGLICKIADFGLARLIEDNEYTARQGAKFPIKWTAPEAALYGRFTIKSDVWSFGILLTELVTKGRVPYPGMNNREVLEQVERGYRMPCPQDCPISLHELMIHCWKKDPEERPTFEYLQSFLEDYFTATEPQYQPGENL

AncSZ = assay: as above
c-Src = assay: as above
c-Abl (mouse) = assay: as above
MERTK = MERTK (UniProt Q12866); assay: as above
FGFR1 = FGFR1 (UniProt P11362); assay: as above
Sequence of FGFR1 (P11362 whole entry, looked up): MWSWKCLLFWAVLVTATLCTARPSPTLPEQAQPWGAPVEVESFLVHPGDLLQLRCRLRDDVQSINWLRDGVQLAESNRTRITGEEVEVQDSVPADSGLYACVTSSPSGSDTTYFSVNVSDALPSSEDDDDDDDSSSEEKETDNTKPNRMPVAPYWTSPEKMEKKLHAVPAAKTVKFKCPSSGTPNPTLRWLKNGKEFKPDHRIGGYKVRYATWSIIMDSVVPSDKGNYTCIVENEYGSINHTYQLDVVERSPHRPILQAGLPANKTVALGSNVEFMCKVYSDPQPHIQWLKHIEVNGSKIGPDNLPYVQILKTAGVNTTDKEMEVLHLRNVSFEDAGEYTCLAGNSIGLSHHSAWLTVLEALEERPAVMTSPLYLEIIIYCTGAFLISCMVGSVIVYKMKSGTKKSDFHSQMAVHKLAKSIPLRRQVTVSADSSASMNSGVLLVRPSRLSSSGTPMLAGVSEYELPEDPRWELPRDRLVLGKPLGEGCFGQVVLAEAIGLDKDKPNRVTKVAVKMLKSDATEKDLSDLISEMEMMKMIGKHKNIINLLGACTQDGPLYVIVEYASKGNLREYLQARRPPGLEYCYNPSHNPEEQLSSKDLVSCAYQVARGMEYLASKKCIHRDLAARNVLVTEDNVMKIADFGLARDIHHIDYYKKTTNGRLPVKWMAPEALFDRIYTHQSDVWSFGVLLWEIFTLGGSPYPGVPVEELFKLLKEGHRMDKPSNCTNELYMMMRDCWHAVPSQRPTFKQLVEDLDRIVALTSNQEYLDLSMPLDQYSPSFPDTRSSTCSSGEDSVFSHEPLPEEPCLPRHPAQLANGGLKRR

Fer (mouse) = assay: as above
Jak2 = Jak2 (UniProt O60674); assay: as above
Sequence of Jak2 (O60674 whole entry, looked up, the tested form may be a part): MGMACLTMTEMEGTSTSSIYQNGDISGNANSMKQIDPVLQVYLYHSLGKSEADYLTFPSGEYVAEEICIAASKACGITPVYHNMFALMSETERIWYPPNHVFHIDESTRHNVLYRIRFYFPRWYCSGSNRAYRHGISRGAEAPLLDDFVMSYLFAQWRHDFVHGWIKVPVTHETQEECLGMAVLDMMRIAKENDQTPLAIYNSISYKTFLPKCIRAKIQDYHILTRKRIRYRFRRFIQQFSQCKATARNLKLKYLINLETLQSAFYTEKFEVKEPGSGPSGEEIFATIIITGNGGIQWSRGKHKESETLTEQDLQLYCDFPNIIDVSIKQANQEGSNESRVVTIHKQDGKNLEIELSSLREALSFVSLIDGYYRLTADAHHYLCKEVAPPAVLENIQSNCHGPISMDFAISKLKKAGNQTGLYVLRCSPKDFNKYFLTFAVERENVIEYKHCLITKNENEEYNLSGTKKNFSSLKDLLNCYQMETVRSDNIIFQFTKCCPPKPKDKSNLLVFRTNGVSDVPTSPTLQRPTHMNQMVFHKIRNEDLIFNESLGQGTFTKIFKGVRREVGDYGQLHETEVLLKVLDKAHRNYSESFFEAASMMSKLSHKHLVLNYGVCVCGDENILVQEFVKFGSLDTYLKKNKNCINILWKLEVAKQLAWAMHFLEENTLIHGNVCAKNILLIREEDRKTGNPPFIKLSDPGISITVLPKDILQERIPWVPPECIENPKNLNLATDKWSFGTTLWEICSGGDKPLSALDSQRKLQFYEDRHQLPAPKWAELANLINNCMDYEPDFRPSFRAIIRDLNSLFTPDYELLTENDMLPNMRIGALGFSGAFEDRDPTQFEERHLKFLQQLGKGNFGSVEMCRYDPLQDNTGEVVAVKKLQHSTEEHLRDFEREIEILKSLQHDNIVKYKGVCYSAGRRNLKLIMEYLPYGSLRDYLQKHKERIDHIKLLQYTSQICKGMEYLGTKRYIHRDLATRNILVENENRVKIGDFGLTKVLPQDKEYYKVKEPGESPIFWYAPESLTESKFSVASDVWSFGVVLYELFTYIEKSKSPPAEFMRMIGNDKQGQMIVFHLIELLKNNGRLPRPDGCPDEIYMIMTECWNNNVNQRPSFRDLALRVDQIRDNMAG
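Wherever SH2 binding enrichment of the phosphorylated peptide, bacterial display is given: peptide library displayed on the E. coli surface as eCPX fusions, selected cells deep-sequenced, score is each peptide's frequency after selection divided by its frequency in the input.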
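Wherever phosphorylation enrichment, bacterial display is given: 11-residue human phosphosite peptides and single-mutation variants displayed on the E. coli surface, counted by deep sequencing, each peptide's frequency after selection divided by its frequency in the unselected input library; frequency after pTyr selection over input frequency; kinase dosed for 20-30% of maximal phosphorylation in three min.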

Sequence of Grb2 SH2 (P62993 whole entry, looked up): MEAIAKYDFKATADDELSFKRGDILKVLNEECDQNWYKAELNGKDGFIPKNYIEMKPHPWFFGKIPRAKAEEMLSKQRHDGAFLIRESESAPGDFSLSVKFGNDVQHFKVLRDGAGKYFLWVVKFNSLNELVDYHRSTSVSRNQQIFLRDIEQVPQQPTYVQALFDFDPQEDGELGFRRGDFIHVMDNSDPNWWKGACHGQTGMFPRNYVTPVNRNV

Row | Sequence | SH2 binding enrichment (SHP2-C SH2) | SH2 binding enrichment (c-Src SH2) | SH2 binding enrichment (Grb2 SH2) | phosphorylation enrichment (Fes) | phosphorylation enrichment (EPHB1) | phosphorylation enrichment (EPHB2) | phosphorylation enrichment (FGFR3) | phosphorylation enrichment (Hck) | phosphorylation enrichment (Fyn) | phosphorylation enrichment (AncSZ) | phosphorylation enrichment (c-Src) | phosphorylation enrichment (c-Abl (mouse)) | phosphorylation enrichment (MERTK) | phosphorylation enrichment (FGFR1) | phosphorylation enrichment (Fer (mouse)) | phosphorylation enrichment (Jak2)
1 | LGSWTYTKTVS [ROS1_Y144] | 0.64 | 0.415 | 0.817 | 2.38 | 2.19 | 1.04 | 1.44 | 1.05 | 0.86 | 1.94 | 0.774 | 0.965 | 0.519 | 1.19 | 0.8 | 1.61
2 | LIHTKYPQLLP [AHCY_Y143] | 0.725 | 0.42 | 0.54 | 0.81 | 0.642 | 0.562 | 0.573 | 0.428 | 0.449 | 0.808 | 0.379 | 0.575 | 0.6 | 0.639 | 0.395 | 0.679
3 | LITILYIGFLG [KCNQ1_Y267_T265I] | 1.26 | 0.845 | 0.879 | 2.55 | 0.835 | 1.18 | 1.31 | 1.08 | 0.809 | 2.28 | 1.24 | 2.13 | 1.43 | 0.72 | 0.895 | 2.73
4 | LITTLYIDFLG [KCNQ1_Y267_G269D] | 0.96 | 0.698 | 1.13 | 1.96 | 1.15 | 1.06 | 1.19 | 0.818 | 1.41 | 1.42 | 1.22 | 1.07 | 0.704 | 1.09 | 0.749 | 1.39
5 | LKDEDYLKDTV [HAUS3_Y582_I586T] | 0.501 | 0.478 | 0.708 | 3.04 | 1.7 | 1.67 | 1.63 | 1.67 | 1.99 | 3.63 | 0.838 | 1.37 | 1.04 | 1.88 | 0.928 | 2.34
6 | LKEIRYPPYTD [ALDH3B2_Y362_H361R] | 0.729 | 0.555 | 0.883 | 1.06 | 0.348 | 0.589 | 0.702 | 0.678 | 0.31 | 0.761 | 0.494 | 0.749 | 0.518 | 0.539 | 0.541 | 0.827
7 | LKGQVYILGGE [ASS1_Y359_R363G] | 0.812 | 0.529 | 0.952 | 1.93 | 1.13 | 1.07 | 1.28 | 0.824 | 0.995 | 1.33 | 1.13 | 1.32 | 1.05 | 1.06 | 1.02 | 1.62
8 | LKKLEYLNLPL [LRRC6_Y70_A74P] | 1.4 | 0.69 | 10.3 | 0.741 | 0.531 | 0.441 | 1.12 | 0.518 | 0.364 | 0.818 | 0.374 | 0.622 | 0.423 | 1.26 | 0.47 | 0.694
9 | LKSEMYQKLLK [RGS13_Y146] | 0.523 | 0.544 | 0.832 | 1.18 | 0.709 | 0.925 | 0.845 | 0.78 | 0.56 | 1.34 | 0.425 | 0.733 | 0.348 | 0.749 | 0.456 | 0.92
10 | LLAGLYRGQAL [FGFR4_Y390] | 0.882 | 0.508 | 0.63 | 0.833 | 0.433 | 0.594 | 0.526 | 0.571 | 0.494 | 0.857 | 0.452 | 0.591 | 0.553 | 0.459 | 0.683 | 0.72
11 | LLDGEYFTLQI [TP53_Y327_P322L] | 0.462 | 0.6 | 1.08 | 5.59 | 1.95 | 1.49 | 8.15 | 2.24 | 3.2 | 5.89 | 7.23 | 3.69 | 1.28 | 10.9 | 1.99 | 8.38
12 | LLIVEYAKYGS [RET_Y806] | 1.28 | 1.49 | 1.83 | 2.4 | 1.12 | 0.872 | 0.942 | 0.759 | 0.622 | 1.52 | 1.23 | 1.03 | 0.75 | 0.804 | 0.868 | 1.82
13 | LLNPRYNLPLD [TOM1L1_Y109] | 0.827 | 1.16 | 0.856 | 0.952 | 0.54 | 0.822 | 0.767 | 0.741 | 0.63 | 1.14 | 0.59 | 1.32 | 1.16 | 0.645 | 0.62 | 0.83
14 | LLSVAYKNVVG [YWHAG_Y49] | 0.518 | 0.434 | 0.932 | 0.935 | 0.645 | 0.64 | 0.709 | 0.665 | 0.585 | 1.02 | 0.418 | 1.05 | 0.454 | 0.589 | 0.551 | 0.649
15 | LLSVAYQNVVG [YWHAG_Y49_K50Q] | 2.77 | 2.53 | 21.1 | 1.25 | 1.19 | 1.07 | 1.08 | 0.632 | 0.757 | 1.23 | 0.443 | 0.832 | 0.519 | 1.34 | 0.83 | 1.22
16 | LLVVLYKYRCF [PSEN1_Y154_Y159F] | 1.61 | 1.29 | 1.63 | 2.42 | 1.23 | 1.03 | 1.12 | 0.825 | 0.762 | 1.32 | 0.523 | 2.02 | 0.626 | 1.11 | 0.911 | 2.16
17 | LQEQNYLAVDS [FAM114A1_Y115] | 0.53 | 0.644 | 0.725 | 2.5 | 6.07 | 2.83 | 3.19 | 0.946 | 1.47 | 2.1 | 0.673 | 0.817 | 1.17 | 3.67 | 4.67 | 1.39

Source: the supplement of paper PMC10065799, “High-throughput profiling of sequence recognition by tyrosine kinases and SH2 domains using bacterial peptide display” (eLife, 2023)
